The target in experiment [1] is T1, IL-17A重组蛋白(抗原), C端6×His标签 (human, UniProt Q16552 24-155, limits assumed, biotin in the ELISA of paragraph 227 (Biotin-IL-17A-His); site not stated).
T1 construct: Expressed in E. coli BL21 from pET28a and purified on a nickel column; also called IL-17A-His; Biotin-IL-17A-His
T1 sequence: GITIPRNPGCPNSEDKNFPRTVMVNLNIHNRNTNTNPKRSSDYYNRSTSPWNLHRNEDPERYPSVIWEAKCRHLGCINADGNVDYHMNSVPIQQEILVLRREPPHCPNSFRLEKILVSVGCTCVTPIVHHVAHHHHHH
The experiment is described as follows: ELISA; antibody coated at 2 ug/mL, Biotin-IL-17A-His titrated from 10 ug/mL in 5-fold steps, HRP-streptavidin.

In experiment [2] the target is T1, IL-17A重组蛋白(抗原), C端6×His标签. The experiment in a line: cell-based or functional assay.
Experiment [3] deals with 生物素化的IL-17A (ACRO Biosystems kit EP-139) (UniProt Q16552). The experiment in a line: competition ELISA kit (ACRO EP-139); IL-17RA coated, biotinylated IL-17A, supernatant diluted 5-fold; inhibition of IL-17A/IL-17RA binding. (In general: In an ELISA, binding on a coated surface is turned into a signal by an enzyme label.)

Two molecules from patent publication CN117866905A (BEILAI PHARMACEUTICAL CO LTD, dated 2024) can be followed below.

B1: 阳性对照抗体依奇珠单抗 (Ixekizumab) (antibody, human IgG4 S228P, kappa, V domains shown)
VH: QVQLVQSGAEVKKPGSSVKVSCKASGYSFTDYHIHWVRQAPGQGLEWMGVINPMYGTTDYNQRFKGRVTITADESTSTAYMELSSLRSEDTAVYYCARYDYFTGTGVYWGQGTLVTVSS
VL: DIVMTQTPLSLSVTPGQPASISCRSSRSLVHSRGNTYLHWYLQKPGQSPQLLIYKVSNRFIGVPDRFSGSGSGTDFTLKISRVEAEDVGVYYCSQSTHLPFTFGQGTKLEIKR
notes: also called 阳性抗体
For B1, the response in experiment [1] was half-maximal at 10.1 µg/mL (EC50). Further, in experiment [2], the “阻断Human IL-17A蛋白激活293F-IL-17RA-IL-17Rc-ACT1-NFκB-Luc, IC50” value came out at 2.23 nM.

B2: G4-H10:Fc融合蛋白 (IL-17Nb secreted by G4-H10-MSC; VHH-(GGGGS)3-VHH-IgG4 Fc) (Fc fusion)
chain: QVQLVESGGGLVQPGGSLRLSCAASGEKLDYFAIGWFRQAPGKEREVVSCVTSSGSSTNYLSSVKDRFTISIDNAKNTVYLQMNSLKPEDTAIYYCASTILLCSDYISAFGTWGQGTQVTVASGGGGSGGGGSGGGGSEVQLVESGGGLVQPGGSLRLSCAASGFSIHIYAMGWYRQAPGKQRELVATITRGGVTNNADSVKGRFTISRDNAKNTAYLQMNSLKPEDTAVYYCNAGGTNGGYWGQGTQVTVSSAPEFLGGPSVFLFPPKPKDTLMISRTPEVTCVVVDVSQEDPEVQFNWYVDGVEVHNAKTKPREEQFNSTYRVVSVLTVLHQDWLNGKEYKCKVSNKGLPSSIEKTISKAKGQPREPQVYTLPPSQEEMTKNQVSLTCLVKGFYPSDIAVEWESNGQPENNYKTTPPVLDSDGSFFLYSRLTVDKSRWQEGNVFSCSVMHEALHNHYTQKSLSLSLGK
B2 had a 结合抑制率 in experiment [3] of 60%.
